According to the supplement of paper PMC7877785:
± gives the uncertainty stated by the source.

Experiment: self-splicing fitness, log relative to wild type (ln ratio); higher = more splicing; Tetrahymena group I intron in knt gene, E. coli kanamycin selection, DiMSum; sequences stand for … in CUCUCU…GGAGGGAAAAGUUAUCAGGCAUGCACCUGGUAGCUAGUCUUUAAACCAAUAGAUUGCAUCGGUUUAAAAGGCAAGACCGUCAAAUUGCGGGAAAGGGGUCAACAGCCGUUCAGUACCAAGUCUCAGGGGAAACUUUGAGAUGGCCUUGCAAAGGGUAUGGUAAUAAGCUGACGGACAUGGUCCUAACCACGCAGCCAAGUCCUAAGUCAACAGAUCUUCUGUUGAUAUGGAUGCAGUUCACAGACUAAAUGUCGGUCGGGGAAGAUGUAUUCUUCUCAUAAGAUAUAGUCGGACCUCUCCUUAAUGGGAGCUAGCGGAUGAAGUGAUGCAACACUGGAGCCGCUGGGAACUAAUUUGUAUGCGAAAGUAUAUUGAUUAGUUUUGGAGUACUCGUGGUCG
In short: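 Six replicate transformations of E. coli BL21(DE3) with a pET-22b(+) library were grown overnight at 37°C or 30°C. The library randomised all eight P1ex-region intron nucleotides, the intron lying in the knt kanamycin-resistance gene, and plates were LB agar with or without 25 μg/mL kanamycin plus 100 μg/mL carbenicillin, 50 μM IPTG and 0.2% rhamnose. Pooled colonies were amplicon-sequenced on an Illumina HiSeq 2500, and fitness is the DiMSum error-weighted combination of wild-type-normalised replicate fold changes, kanamycin versus none.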

Sequence | self-splicing fitness (ln) (30 °C) | self-splicing fitness (ln) (37 °C)
CCCGAGCAAUAUUACGAUCC | -2.76 ± 0.24 | -2.71 ± 0.27
CCCGAGCAAUAUUACGCAAG | -2.73 ± 0.27 | 
CCCGAGCAAUAUUACGCAUG | -3.7 ± 0.15 | -2.64 ± 0.15
CCCGAGCAAUAUUACGCCGG | -3.9 ± 0.37 | -2.23 ± 0.34
CCCGAGCAAUAUUACGCCUG | -4.16 ± 0.39 | 
CCCGAGCAAUAUUACGCGAU | -1.12 ± 0.19 | -2.5 ± 0.34
CCCGAGCAAUAUUACGCUCA | -2.87 ± 0.32 | -2.7 ± 0.36
CCCGAGCAAUAUUACGGAAG | -3.91 ± 0.24 | -2.29 ± 0.15
CCCGAGCAAUAUUACGGCGA | -2.7 ± 0.2 | -1.19 ± 0.12
CCCGAGCAAUAUUACGGUCC | -2.99 ± 0.26 | -2.61 ± 0.22
CCCGAGCAAUAUUACGUCAC | -2.9 ± 0.37 | -2.27 ± 0.49
CCCGAGCAAUAUUACGUCGG | -3.02 ± 0.25 | -2.41 ± 0.32
CCCGAGCAAUAUUACGUUAC | -3.01 ± 0.35 | -2.37 ± 0.32
CCCUAGCAAUAUUACGACAU | -3.809 ± 0.024 | -2.93 ± 0.039
CCCUAGCAAUAUUACGACGC | -3.34 ± 0.32 | -2.53 ± 0.39
CCCUAGCAAUAUUACGACUC | -4.18 ± 0.28 | -2.71 ± 0.24
CCCUAGCAAUAUUACGAUAC | -2.76 ± 0.38 | 
CCCUAGCAAUAUUACGAUCA | -3.03 ± 0.25 | -2.22 ± 0.24
CCCUAGCAAUAUUACGAUCC |  | -1.26 ± 0.45
CCCUAGCAAUAUUACGAUGU | -3.58 ± 0.22 | -2.55 ± 0.18
CCCUAGCAAUAUUACGCACC |  | -2.9 ± 0.48
CCCUAGCAAUAUUACGCCCU | -3.61 ± 0.35 | -1.54 ± 0.23
CCCUAGCAAUAUUACGCCGC | -3.7 ± 0.25 | -1.96 ± 0.27
CCCUAGCAAUAUUACGCUGA | -3.14 ± 0.23 | -2.85 ± 0.38
CCCUAGCAAUAUUACGGGGC | -3.47 ± 0.15 | -2.15 ± 0.22
CCCUAGCAAUAUUACGGUAC | -4.33 ± 0.34 | -3.04 ± 0.32
CCCUAGCAAUAUUACGUAAA |  | -2.22 ± 0.32

Sequence | self-splicing fitness (ln) (30 °C) | self-splicing fitness (ln) (37 °C)
CCCUAGCAAUAUUACGUAAC | -3.66 ± 0.27 | -1.33 ± 0.18
CCCUAGCAAUAUUACGUACG | -2.86 ± 0.18 | -2.81 ± 0.27
CCCUAGCAAUAUUACGUAGC | -2.65 ± 0.17 | -2.75 ± 0.24
CCCUAGCAAUAUUACGUGCC | -3.52 ± 0.22 | -2.2 ± 0.24
CCGAAGCAAUAUUACGACAU | -3.977 ± 0.028 | -2.82 ± 0.04
CCGAAGCAAUAUUACGCAUA | -2.88 ± 0.27 | -3.64 ± 0.31
CCGAAGCAAUAUUACGCCCU |  | -1.26 ± 0.46
CCGAAGCAAUAUUACGCCUA | -2.94 ± 0.22 | -2.62 ± 0.28
CCGAAGCAAUAUUACGCGAC | -3.1 ± 0.2 | -1.48 ± 0.19
CCGAAGCAAUAUUACGCGCC | -2.58 ± 0.23 | -2.27 ± 0.3
CCGAAGCAAUAUUACGCGUA | -3.7 ± 0.23 | -2.84 ± 0.2
CCGAAGCAAUAUUACGCGUC | -3.28 ± 0.25 | -3.2 ± 0.32
CCGAAGCAAUAUUACGCUAA | -3.2 ± 0.34 | -2.7 ± 0.43
CCGAAGCAAUAUUACGCUGC | -2.89 ± 0.34 | -2.4 ± 0.45
CCGAAGCAAUAUUACGCUUG | -3.79 ± 0.33 | -2.26 ± 0.22
CCGAAGCAAUAUUACGGAAA | -3.26 ± 0.26 | -3.49 ± 0.31
CCGAAGCAAUAUUACGGCAG | -2.86 ± 0.15 | -1.44 ± 0.16
CCGAAGCAAUAUUACGGCGU | -3.6 ± 0.17 | -2.79 ± 0.17
CCGAAGCAAUAUUACGGCUC | -3.57 ± 0.32 | -2.81 ± 0.35
CCGAAGCAAUAUUACGGGCU | -4.21 ± 0.23 | -2.36 ± 0.2
CCGAAGCAAUAUUACGGUUG | -1.84 ± 0.059 | -0.955 ± 0.072
CCGAAGCAAUAUUACGUAGG | -3.15 ± 0.17 | -2.65 ± 0.23
CCGAAGCAAUAUUACGUAGU | -3.44 ± 0.17 | -3.21 ± 0.23
CCGAAGCAAUAUUACGUCUC | -3.9 ± 0.28 | -3.47 ± 0.2
CCGAAGCAAUAUUACGUUCU | -3.84 ± 0.26 | -3.37 ± 0.24
CCGCAGCAAUAUUACGAAUA | -3.37 ± 0.38 | -2.62 ± 0.38
CCGCAGCAAUAUUACGAAUC | -1.78 ± 0.17 | 

Sequence | self-splicing fitness (ln) (30 °C) | self-splicing fitness (ln) (37 °C)
CCGCAGCAAUAUUACGAAUG | -1.2 ± 0.063 | -0.305 ± 0.065
CCGCAGCAAUAUUACGAAUU | -3.73 ± 0.19 | -2.51 ± 0.2
CCGCAGCAAUAUUACGAGGC | -3.72 ± 0.19 | -2.65 ± 0.23
CCGCAGCAAUAUUACGAGUC | -3.36 ± 0.26 | -3.29 ± 0.28
CCGCAGCAAUAUUACGAUCU | -3.81 ± 0.29 | -2.35 ± 0.26
CCGCAGCAAUAUUACGAUUA | -3.03 ± 0.23 | -2.72 ± 0.29
CCGCAGCAAUAUUACGCAAC | -3.22 ± 0.19 | -3.07 ± 0.32
CCGCAGCAAUAUUACGCAAU | -3.95 ± 0.18 | -3.67 ± 0.27
CCGCAGCAAUAUUACGCACG | -0.993 ± 0.097 | -0.578 ± 0.11
CCGCAGCAAUAUUACGCCUG | -1.69 ± 0.13 | -1.22 ± 0.16
CCGCAGCAAUAUUACGCGAA | -2.87 ± 0.18 | -2.5 ± 0.18
CCGCAGCAAUAUUACGCGAC | -2.84 ± 0.17 | -2.09 ± 0.26
CCGCAGCAAUAUUACGCUUA | -3.07 ± 0.17 | -2.9 ± 0.25
CCGCAGCAAUAUUACGGAUG | -1.99 ± 0.12 | -1.54 ± 0.13
CCGCAGCAAUAUUACGGCAG | -1.4 ± 0.081 | 0.0999 ± 0.098
CCGCAGCAAUAUUACGGCCG | -0.461 ± 0.12 | 0.198 ± 0.15
CCGCAGCAAUAUUACGGCGU | -2.44 ± 0.081 | -1.27 ± 0.096
CCGCAGCAAUAUUACGUCAC | -4.14 ± 0.19 | -2.84 ± 0.22
CCGCAGCAAUAUUACGUCAU | -3.18 ± 0.15 | -2.25 ± 0.2
CCGCAGCAAUAUUACGUCUC | -3.13 ± 0.24 | -2.56 ± 0.26
CCGCAGCAAUAUUACGUGAG | -0.587 ± 0.038 | -0.367 ± 0.051
CCGCAGCAAUAUUACGUUAU | -3.43 ± 0.17 | -2.77 ± 0.19
CCGCAGCAAUAUUACGUUGG | -3.26 ± 0.22 | -1.52 ± 0.2
CCGGAGCAAUAUUACGAACG | -0.608 ± 0.16 | 0.0318 ± 0.19
CCGGAGCAAUAUUACGAUAC |  | -1.97 ± 0.36
